Biological target: YFP-hDcp2 (human), Q8IU60
Experiment: FRET or BRET
Conditions: remark: other sources report otherwise

apparent FRET efficiency (one experiment, foci in the bleached region): 17% | average apparent FRET efficiency: 15%
B1: CFP-hDcp1a, Q9NPI6 1-582 (natural protein)
chain: MEALSRAGQEMSLAALKQHDPYITSIADLTGQVALYTFCPKANQWEKTDIEGTLFVYRRSASPYHGFTIVNRLNMHNLVEPVNKDLEFQLHEPFLLYRNASLSIYSIWFYDKNDCHRIAKLMADVVEEETRRSQQAARDKQSPSQANGCSDHRPIDILEMLSRAKDEYERNQMGDSNISSPGLQPSTQLSNLGSTETLEEMPSGSQDKSAPSGHKHLTVEELFGTSLPKEQPAVVGLDSEEMERLPGDASQKEPNSFLPFPFEQLGGAPQSETLGVPSAAHHSVQPEITTPVLITPASITQSNEKHAPTYTIPLSPVLSPTLPAEAPTAQVPPSLPRNSTMMQAVKTTPRQRSPLLNQPVPELSHASLIANQSPFRAPLNVTNTAGTSLPSVDLLQKLRLTPQHDQIQTQPLGKGAMVASFSPAAGQLATPESFIEPPSKTAAARVAASASLSNMVLAPLQSMQQNQDPEVFVQPKVLSSAIPVAGAPLVTATTTAVSSVLLAPSVFQQTVTRSSDLERKASSPSPLTIGTPESQRKPSIILSKSQLQDTLIHLIKNDSSFLSTLHEVYLQVLTKNKDNHNL

— article PMC2172085
